In article PMC2720974, “DNA-binding by Haemophilus influenzae and Escherichia coli YbaB, members of a widely-distributed bacterial protein family” (BMC Microbiology, 2009):
Numbering of substitutions follows the chain as printed.

T1: YbaBEc (Escherichia coli, UniProt P0A8B5 1-109)
T1 sequence: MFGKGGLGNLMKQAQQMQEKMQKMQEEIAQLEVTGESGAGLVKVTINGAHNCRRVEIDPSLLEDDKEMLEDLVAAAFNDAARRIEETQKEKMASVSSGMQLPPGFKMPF

T2: EbfC (Borrelia burgdorferi, UniProt O51418 1-99)
T2 sequence: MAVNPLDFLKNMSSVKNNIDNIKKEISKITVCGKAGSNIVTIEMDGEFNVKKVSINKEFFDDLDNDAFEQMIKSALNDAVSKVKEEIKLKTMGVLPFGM

B1: Haemophilus influenzae YbaB (natural protein, H. influenzae, UniProt P44711 1-109, looked up)
chain: MFGKGGLGGLMKQAQQMQEKMQKMQEEIAQLEVTGESGAGLVKITINGAHNCRRIDIDPSLMEDDKEMLEDLIAAAFNDAVRRAEELQKEKMASVTAGMPLPPGMKFPF
notes: Purified on a His-Trap column; removal of the tag is not mentioned; also called YbaBHi; HI0442; source: E. coli Rosetta pLysS, purified (His-Trap HP)
B2: b-WT (dsDNA)
DNA 1: TTGTAATGAGTAGTGCATTTGCAATGGAGAGATTTTGGGGAGTTGTTTAAAATTACATTTGCGTTTTGTTAAAATGTAACAGCTGAATGTAACAAAATTATATATTTAAATCTTTGAAATATTGC
DNA 2: GCAATATTTCAAAGATTTAAATATATAATTTTGTTACATTCAGCTGTTACATTTTAACAAAACGCAAATGTAATTTTAAACAACTCCCCAAAATCTCTCCATTGCAAATGCACTACTCATTACAA
B3: b-C50 (dsDNA)
DNA 1: B2 DNA 1 with T75C, G76A, T77C, A92T
DNA 2: B2 DNA 2 with T34A, A49G, C50T, A51G
B4: b-C30 (dsDNA)
DNA 1: B2 DNA 1 with T75C, G76A, T77C, A94T
DNA 2: B2 DNA 2 with T32A, A49G, C50T, A51G
B5: b-C2 (dsDNA)
DNA 1: B2 DNA 1 with T75C, G76A, T77C
DNA 2: B2 DNA 2 with A49G, C50T, A51G
B6: b-C40 (dsDNA)
DNA 1: B2 DNA 1 with T75C, G76A, T77C, A91G
DNA 2: B2 DNA 2 with T35C, A49G, C50T, A51G
B7: b-C20 (dsDNA)
DNA 1: B2 DNA 1 with T75C, G76A, T77C, C93A
DNA 2: B2 DNA 2 with G33T, A49G, C50T, A51G

Tests used:
[1] = target: the molecule itself; test: SEC; data not shown; Superdex 75 10/300 GL, 200 mM NaCl, 50 mM Tris-HCl pH 7.5, 1% glycerol; 200 ul of about 0.2 mg/ml YbaBHi; mass from a calibration curve of standards
[2] = target: T1, YbaBEc; test: EMSA; first step, apparent monomer-equivalent; EMSA: 100 pM biotin-DNA, 50 mM Tris-HCl pH 7.5, 1 mM DTT, protease inhibitor 8 ul/ml, phosphatase inhibitor 2 ul/ml, 10% glycerol, no added salt stated, 20 min, room temperature; conditions: protein: recombinant; tags: pET200-TOPO vector tag, His-Trap purified; chain copies: 2; label: 5' biotin on strand 1; blunt
[3] = target: T3, YbaBHi (Haemophilus influenzae, UniProt P44711 1-109); test: as above; conditions: protein: recombinant; tags: pET15b vector tag, His-Trap purified; chain copies: 2; label: 5' biotin on strand 1; blunt
[4] = target: T3, YbaBHi; test: EMSA; first step, n=2.09; EMSA: 100 pM biotin-DNA, 50 mM Tris-HCl pH 7.5, 1 mM DTT, protease inhibitor 8 ul/ml, phosphatase inhibitor 2 ul/ml, 10% glycerol, no added salt stated, 20 min, room temperature; conditions: protein: recombinant; tags: pET15b vector tag, His-Trap purified; chain copies: 2; label: 5' biotin on strand 1; blunt
[5] = target: T1, YbaBEc; test: EMSA; first step, n=1.93; EMSA: 100 pM biotin-DNA, 50 mM Tris-HCl pH 7.5, 1 mM DTT, protease inhibitor 8 ul/ml, phosphatase inhibitor 2 ul/ml, 10% glycerol, no added salt stated, 20 min, room temperature; conditions: protein: recombinant; tags: pET200-TOPO vector tag, His-Trap purified; chain copies: 2; label: 5' biotin on strand 1; blunt
[6] = target: T1, YbaBEc; test: EMSA; no detectable effect of mutation; EMSA: 100 pM biotin-DNA, 50 mM Tris-HCl pH 7.5, 1 mM DTT, protease inhibitor 8 ul/ml, phosphatase inhibitor 2 ul/ml, 10% glycerol, no added salt stated, 20 min, room temperature; conditions: protein: recombinant; tags: pET200-TOPO vector tag, His-Trap purified; chain copies: 2; label: 5' biotin on strand 1; blunt
[7] = target: T3, YbaBHi; test: as above; conditions: protein: recombinant; tags: pET15b vector tag, His-Trap purified; chain copies: 2; label: 5' biotin on strand 1; blunt
[8] = target: T2, EbfC; test: EMSA; specific plus nonspecific complex; EMSA: 100 pM biotin-DNA, 50 mM Tris-HCl pH 7.5, 1 mM DTT, protease inhibitor 8 ul/ml, phosphatase inhibitor 2 ul/ml, 10% glycerol, no added salt stated, 20 min, room temperature; conditions: protein: recombinant; tags: His-Trap purified (His tag implied); chain copies: 2; label: 5' biotin on strand 1; blunt
[9] = target: T1, YbaBEc; test: EMSA; protein at half its Kd; EMSA: 100 pM biotin-DNA, 50 mM Tris-HCl pH 7.5, 1 mM DTT, protease inhibitor 8 ul/ml, phosphatase inhibitor 2 ul/ml, 10% glycerol, no added salt stated, 20 min, room temperature; conditions: protein: recombinant; tags: pET200-TOPO vector tag, His-Trap purified; chain copies: 2; label: 5' biotin on strand 1; blunt
[10] = target: T3, YbaBHi; test: as above; conditions: protein: recombinant; tags: pET15b vector tag, His-Trap purified; chain copies: 2; label: 5' biotin on strand 1; blunt

Row | Binder | binding result [6] | binding result [7] | other results
1 | B1 | – | – | stoichiometry N [1]: 2
2 | B2 | – | – | Kd [2]: 77 nM; Kd [3]: 240 nM; Ka [4]: 1.7e+13 M-2; Ka [5]: 1.7e+14 M-2
3 | B3 | binds | binds | –
4 | B4 | binds | binds | –
5 | B5 | – | – | binding result [8]: binds; binding result [9]: binds; binding result [10]: binds
6 | B6 | binds | binds | –
7 | B7 | binds | binds | –
